Data set [1] is described as follows: cycloheximide chase, degradation rate. The following applies: glycan lost; control: LATS1-WT.
Data set [2] can be described thus: HA-Ub co-transfection, MG-132, anti-MYC IP, blot. The following applies: glycan lost; control: LATS1-WT.
Data set [3] can be described thus: Nub-Gal4 overexpression, wing area. To be noted: glycan lost; control: Nub > LATS1, standard medium.
Data set [4] is described as follows: Nub-Gal4 overexpression, wing area, no-glucose medium. To be noted: glycan lost; control: Nub > LATS1, glucose-free medium.

Experimental findings from article PMC12797046 are described below.

B1: LATS1: 4A (protein)
parent chain: MKRSEKPEGYRQMRPKTFPASNYTVSSRQMLQEIRESLRNLSKPSDAAKAEHNMSKMSTEDPRQVRNPPKFGTHHKALQEIRNSLLPFANETNSSRSTSEVNPQMLQDLQAAGFDEDMVIQALQKTNNRSIEAAIEFISKMSYQDPRREQMAAAAARPINASMKPGNVQQSVNRKQSWKGSKESLVPQRHGPPLGESVAYHSESPNSQTDVGRPLSGSGISAFVQAHPSNGQRVNPPPPPQVRSVTPPPPPRGQTPPPRGTTPPPPSWEPNSQTKRYSGNMEYVISRISPVPPGAWQEGYPPPPLNTSPMNPPNQGQRGISSVPVGRQPIIMQSSSKFNFPSGRPGMQNGTGQTDFMIHQNVVPAGTVNRQPPPPYPLTAANGQSPSALQTGGSAAPSSYTNGSIPQSMMVPNRNSHNMELYNISVPGLQTNWPQSSSAPAQSSPSSGHEIPTWQPNIPVRSNSFNNPLGNRASHSANSQPSATTVTAITPAPIQQPVKSMRVLKPELQTALAPTHPSWIPQPIQTVQPSPFPEGTASNVTVMPPVAEAPNYQGPPPPYPKHLLHQNPSVPPYESISKPSKEDQPSLPKEDESEKSYENVDSGDKEKKQITTSPITVRKNKKDEERRESRIQSYSPQAFKFFMEQHVENVLKSHQQRLHRKKQLENEMMRVGLSQDAQDQMRKMLCQKESNYIRLKRAKMDKSMFVKIKTLGIGAFGEVCLARKVDTKALYATKTLRKKDVLLRNQVAHVKAERDILAEADNEWVVRLYYSFQDKDNLYFVMDYIPGGDMMSLLIRMGIFPESLARFYIAELTCAVESVHKMGFIHRDIKPDNILIDRDGHIKLTDFGLCTGFRWTHDSKYYQSGDHPRQDSMDFSNEWGDPSSCRCGDRLKPLERRAARQHQRCLAHSLVGTPNYIAPEVLLRTGYTQLCDWWSVGVILFEMLVGQPPFLAQTPLETQMKVINWQTSLHIPPQAKLSPEASDLIIKLCRGPEDRLGKNGADEIKAHPFFKTIDFSSDLRQQSASYIPKITHPTDTSNFDPVDPDKLWSDDNEEENVNDTLNGWYKNGKHPEHAFYEFTFRRFFDDNGYPYNYPKPIEYEYINSQGSEQQSDEDDQNTGSEIKNRDLVYV
As to B1, the degradation_or_half_life entry in data set [1] is “decreases”. Also, in data set [2], the “other: ubiquitination” value is listed as “decreases”.

B2: LATS1: LATS1-4A (protein)
parent chain: MKRSEKPEGYRQMRPKTFPASNYTVSSRQMLQEIRESLRNLSKPSDAAKAEHNMSKMSTEDPRQVRNPPKFGTHHKALQEIRNSLLPFANETNSSRSTSEVNPQMLQDLQAAGFDEDMVIQALQKTNNRSIEAAIEFISKMSYQDPRREQMAAAAARPINASMKPGNVQQSVNRKQSWKGSKESLVPQRHGPPLGESVAYHSESPNSQTDVGRPLSGSGISAFVQAHPSNGQRVNPPPPPQVRSVTPPPPPRGQTPPPRGTTPPPPSWEPNSQTKRYSGNMEYVISRISPVPPGAWQEGYPPPPLNTSPMNPPNQGQRGISSVPVGRQPIIMQSSSKFNFPSGRPGMQNGTGQTDFMIHQNVVPAGTVNRQPPPPYPLTAANGQSPSALQTGGSAAPSSYTNGSIPQSMMVPNRNSHNMELYNISVPGLQTNWPQSSSAPAQSSPSSGHEIPTWQPNIPVRSNSFNNPLGNRASHSANSQPSATTVTAITPAPIQQPVKSMRVLKPELQTALAPTHPSWIPQPIQTVQPSPFPEGTASNVTVMPPVAEAPNYQGPPPPYPKHLLHQNPSVPPYESISKPSKEDQPSLPKEDESEKSYENVDSGDKEKKQITTSPITVRKNKKDEERRESRIQSYSPQAFKFFMEQHVENVLKSHQQRLHRKKQLENEMMRVGLSQDAQDQMRKMLCQKESNYIRLKRAKMDKSMFVKIKTLGIGAFGEVCLARKVDTKALYATKTLRKKDVLLRNQVAHVKAERDILAEADNEWVVRLYYSFQDKDNLYFVMDYIPGGDMMSLLIRMGIFPESLARFYIAELTCAVESVHKMGFIHRDIKPDNILIDRDGHIKLTDFGLCTGFRWTHDSKYYQSGDHPRQDSMDFSNEWGDPSSCRCGDRLKPLERRAARQHQRCLAHSLVGTPNYIAPEVLLRTGYTQLCDWWSVGVILFEMLVGQPPFLAQTPLETQMKVINWQTSLHIPPQAKLSPEASDLIIKLCRGPEDRLGKNGADEIKAHPFFKTIDFSSDLRQQSASYIPKITHPTDTSNFDPVDPDKLWSDDNEEENVNDTLNGWYKNGKHPEHAFYEFTFRRFFDDNGYPYNYPKPIEYEYINSQGSEQQSDEDDQNTGSEIKNRDLVYV
On to B2, for which the “other: Drosophila wing size” value in data set [3] is listed as “decreases”; in data set [4] it was “no change”.
